T1: RAPGEF6, Q8TEU7
T1 sequence (Q8TEU7 525-625, limits assumed, looked up): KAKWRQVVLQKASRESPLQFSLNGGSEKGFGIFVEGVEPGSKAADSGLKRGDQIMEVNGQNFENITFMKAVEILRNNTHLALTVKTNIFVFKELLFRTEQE

T2: GRIP1_3, Q9Y3R0
T2 sequence (Q9Y3R0 247-346, limits assumed, looked up): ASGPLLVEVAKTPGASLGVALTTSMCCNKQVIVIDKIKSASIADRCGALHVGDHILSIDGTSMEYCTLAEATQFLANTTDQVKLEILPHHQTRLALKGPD

T3: PDZRN3_1, Q9UPQ7
T3 sequence (Q9UPQ7 244-349, limits assumed, looked up): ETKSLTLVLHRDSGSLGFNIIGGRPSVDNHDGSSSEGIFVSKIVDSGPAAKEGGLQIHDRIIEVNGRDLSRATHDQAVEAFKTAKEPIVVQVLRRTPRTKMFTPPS

T4: RADIL, Q96JH8
T4 sequence (Q96JH8 971-1071, limits assumed, looked up): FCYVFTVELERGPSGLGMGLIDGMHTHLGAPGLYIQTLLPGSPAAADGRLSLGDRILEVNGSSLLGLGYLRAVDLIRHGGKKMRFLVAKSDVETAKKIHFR

T5: GRIP1_5, Q9Y3R0
T5 sequence (Q9Y3R0 568-668, limits assumed, looked up): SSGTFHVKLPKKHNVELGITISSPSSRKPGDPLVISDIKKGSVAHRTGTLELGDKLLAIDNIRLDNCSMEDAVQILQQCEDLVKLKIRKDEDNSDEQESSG

T6: LIN7A, O14910
T6 sequence (O14910 103-200, limits assumed, looked up): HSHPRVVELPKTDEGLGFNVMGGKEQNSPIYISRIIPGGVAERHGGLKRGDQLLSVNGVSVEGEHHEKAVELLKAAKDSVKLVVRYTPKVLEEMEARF

T7: FRMPD1, Q5SYB0
T7 sequence (Q5SYB0 52-145, limits assumed, looked up): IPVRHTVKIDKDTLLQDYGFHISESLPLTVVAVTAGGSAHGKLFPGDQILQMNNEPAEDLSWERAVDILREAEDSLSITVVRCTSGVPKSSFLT

T8: RHPN1, Q8TCX5
T8 sequence (Q8TCX5 508-602, limits assumed, looked up): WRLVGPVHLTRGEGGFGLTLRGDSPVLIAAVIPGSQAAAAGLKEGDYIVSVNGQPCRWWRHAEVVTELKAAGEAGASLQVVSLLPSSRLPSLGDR

T9: GRIP1_2, Q9Y3R0
T9 sequence (Q9Y3R0 145-248, limits assumed, looked up): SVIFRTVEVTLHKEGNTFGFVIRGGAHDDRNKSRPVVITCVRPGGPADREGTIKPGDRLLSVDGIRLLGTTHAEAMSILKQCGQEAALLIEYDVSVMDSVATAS

T10: TJP3_3, O95049
T10 sequence (O95049 375-456, limits assumed, looked up): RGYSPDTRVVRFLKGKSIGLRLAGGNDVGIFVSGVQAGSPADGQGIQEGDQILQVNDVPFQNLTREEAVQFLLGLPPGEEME


Experiments:
Experiment in all cases: holdup assay
Set-up in all cases: key: below the threshold = too weak to quantify, mostly under pKd 3.1 to 4
Conditions in all cases: plain residues with an end cap or a label only (N-terminal biotin on a linker: ado-ado)
MAGI1_1, Q96QZ7 = target: MAGI1_1, Q96QZ7
MAGI1_1, Q96QZ7, sequence (Q96QZ7 1-106): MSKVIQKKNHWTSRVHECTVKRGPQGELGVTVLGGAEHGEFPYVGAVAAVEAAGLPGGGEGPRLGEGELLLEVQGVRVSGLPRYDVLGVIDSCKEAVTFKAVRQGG

GORASP2, Q9H8Y8 = target: GORASP2, Q9H8Y8
MAST2, Q6P0Q8 = target: MAST2, Q6P0Q8
MAST2, Q6P0Q8, sequence (Q6P0Q8 1099-1202): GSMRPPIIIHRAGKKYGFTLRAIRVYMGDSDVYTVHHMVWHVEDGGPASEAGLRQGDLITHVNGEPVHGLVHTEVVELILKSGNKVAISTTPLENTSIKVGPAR

RAPGEF6, Q8TEU7 = target: T1, RAPGEF6, Q8TEU7
GRIP1_3, Q9Y3R0 = target: T2, GRIP1_3, Q9Y3R0
NHERF4_4, Q86UT5 = target: NHERF4_4, Q86UT5
NHERF4_4, Q86UT5, sequence (Q86UT5 464-550): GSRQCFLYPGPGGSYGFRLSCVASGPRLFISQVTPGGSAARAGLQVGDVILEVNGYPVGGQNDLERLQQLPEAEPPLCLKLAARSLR

SCRIB_1, Q14160 = target: SCRIB_1, Q14160
SCRIB_1, Q14160, sequence (Q14160 718-814): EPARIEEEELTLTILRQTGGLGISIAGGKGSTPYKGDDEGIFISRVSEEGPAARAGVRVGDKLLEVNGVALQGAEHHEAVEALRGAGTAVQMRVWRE

PDZRN3_1, Q9UPQ7 = target: T3, PDZRN3_1, Q9UPQ7
PDZRN4_1, Q6ZMN7 = target: PDZRN4_1, Q6ZMN7
PDZRN4_1, Q6ZMN7, sequence (Q6ZMN7 213-318): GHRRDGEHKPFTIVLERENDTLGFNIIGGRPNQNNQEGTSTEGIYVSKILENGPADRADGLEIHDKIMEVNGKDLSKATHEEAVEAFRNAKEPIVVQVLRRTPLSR

DLG1_1, Q12959 = target: DLG1_1, Q12959
LNX1_3, Q8TBB1 = target: LNX1_3, Q8TBB1
LNX1_3, Q8TBB1, sequence (Q8TBB1 500-596): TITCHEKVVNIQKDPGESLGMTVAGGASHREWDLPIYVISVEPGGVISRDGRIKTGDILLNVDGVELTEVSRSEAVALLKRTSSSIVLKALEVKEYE

DLG5_1, Q8TDM6 = target: DLG5_1, Q8TDM6
DLG5_1, Q8TDM6, sequence (Q8TDM6 617-713): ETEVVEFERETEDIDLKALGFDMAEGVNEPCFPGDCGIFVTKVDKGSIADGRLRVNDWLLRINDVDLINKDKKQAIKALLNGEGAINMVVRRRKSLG

RADIL, Q96JH8 = target: T4, RADIL, Q96JH8
GRIP1_5, Q9Y3R0 = target: T5, GRIP1_5, Q9Y3R0
GOPC, Q9HD26 = target: GOPC, Q9HD26
LIN7A, O14910 = target: T6, LIN7A, O14910
HTRA1, Q92743 = target: HTRA1, Q92743
HTRA1, Q92743, sequence (Q92743 360-477): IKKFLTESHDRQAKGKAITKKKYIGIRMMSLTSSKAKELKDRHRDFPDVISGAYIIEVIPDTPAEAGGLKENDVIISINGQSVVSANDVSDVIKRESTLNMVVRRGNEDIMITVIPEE

LNX1_1, Q8TBB1 = target: LNX1_1, Q8TBB1
LNX1_1, Q8TBB1, sequence (Q8TBB1 261-371): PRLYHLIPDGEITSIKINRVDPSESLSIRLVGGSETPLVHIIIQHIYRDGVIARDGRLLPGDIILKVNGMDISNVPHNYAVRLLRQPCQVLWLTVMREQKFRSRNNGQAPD

FRMPD1, Q5SYB0 = target: T7, FRMPD1, Q5SYB0
RHPN1, Q8TCX5 = target: T8, RHPN1, Q8TCX5
NHERF4_2, Q86UT5 = target: NHERF4_2, Q86UT5
NHERF4_2, Q86UT5, sequence (Q86UT5 220-308): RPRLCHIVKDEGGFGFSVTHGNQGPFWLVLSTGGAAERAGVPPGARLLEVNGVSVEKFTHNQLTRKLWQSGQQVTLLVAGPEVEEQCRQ

DLG4_3, P78352 = target: DLG4_3, P78352
DLG4_3, P78352, sequence (P78352 306-403): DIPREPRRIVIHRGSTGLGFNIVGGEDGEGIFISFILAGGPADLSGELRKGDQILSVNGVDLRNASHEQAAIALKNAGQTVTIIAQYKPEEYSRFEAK

PDLIM1, O00151 = target: PDLIM1, O00151
PDLIM1, O00151, sequence (O00151 1-87): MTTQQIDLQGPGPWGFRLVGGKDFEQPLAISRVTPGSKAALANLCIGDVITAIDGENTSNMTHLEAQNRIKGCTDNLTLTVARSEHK

GORASP1, Q9BQQ3 = target: GORASP1, Q9BQQ3
GORASP1, Q9BQQ3, sequence (Q9BQQ3 1-208): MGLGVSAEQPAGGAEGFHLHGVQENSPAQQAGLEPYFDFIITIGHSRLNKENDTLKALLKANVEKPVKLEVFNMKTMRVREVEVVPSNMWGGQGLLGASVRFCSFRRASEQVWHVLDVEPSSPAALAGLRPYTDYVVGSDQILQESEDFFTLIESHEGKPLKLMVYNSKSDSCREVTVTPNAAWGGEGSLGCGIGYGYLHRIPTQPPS

GRIP1_2, Q9Y3R0 = target: T9, GRIP1_2, Q9Y3R0
TJP3_3, O95049 = target: T10, TJP3_3, O95049
Inadl_10, Q8NI35 = target: Inadl_10, Q8NI35
Inadl_10, Q8NI35, sequence (Q8NI35 1673-1763): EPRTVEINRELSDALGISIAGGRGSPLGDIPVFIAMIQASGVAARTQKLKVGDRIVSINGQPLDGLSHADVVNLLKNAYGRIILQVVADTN

TJP2_1, Q9UDY2 = target: TJP2_1, Q9UDY2
TJP2_1, Q9UDY2, sequence (Q9UDY2 24-128): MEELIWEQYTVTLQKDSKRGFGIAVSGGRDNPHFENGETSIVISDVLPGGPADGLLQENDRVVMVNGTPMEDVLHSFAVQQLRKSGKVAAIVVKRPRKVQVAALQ

Binder	pKd (MAGI1_1, Q96QZ7)	pKd (GORASP2, Q9H8Y8)	pKd (MAST2, Q6P0Q8)	pKd (RAPGEF6, Q8TEU7)	pKd (GRIP1_3, Q9Y3R0)	pKd (NHERF4_4, Q86UT5)	pKd (SCRIB_1, Q14160)	pKd (PDZRN3_1, Q9UPQ7)	pKd (PDZRN4_1, Q6ZMN7)	pKd (DLG1_1, Q12959)	pKd (LNX1_3, Q8TBB1)	pKd (DLG5_1, Q8TDM6)	pKd (RADIL, Q96JH8)	pKd (GRIP1_5, Q9Y3R0)	pKd (GOPC, Q9HD26)	pKd (LIN7A, O14910)	pKd (HTRA1, Q92743)	pKd (LNX1_1, Q8TBB1)	pKd (FRMPD1, Q5SYB0)	pKd (RHPN1, Q8TCX5)	further results
TNSKQGETTV [FZD1, Q9UP38]	below the threshold	3.99	4.88	3.54	below the threshold	3.95	4.07	3.85	4.06	4.61	below the threshold	3.91	3.63	below the threshold	3.67	3.72	4.34	below the threshold	below the threshold	4.14	pKd (NHERF4_2, Q86UT5): below the threshold; pKd (DLG4_3, P78352): 3.76; pKd (PDLIM1, O00151): below the threshold; pKd (GORASP1, Q9BQQ3): below the threshold; pKd (GRIP1_2, Q9Y3R0): 3.49; pKd (TJP3_3, O95049): below the threshold; pKd (Inadl_10, Q8NI35): below the threshold; pKd (TJP2_1, Q9UDY2): below the threshold
AKADAQESRL [PLCB2, Q00722]	below the threshold	below the threshold	5.82	below the threshold	below the threshold	below the threshold	4.2	4.42	4.5	below the threshold	below the threshold	below the threshold	below the threshold	below the threshold	4.1	3.65	below the threshold	3.58	below the threshold	4.53	pKd (NHERF4_2, Q86UT5): below the threshold; pKd (DLG4_3, P78352): below the threshold; pKd (PDLIM1, O00151): below the threshold; pKd (GORASP1, Q9BQQ3): below the threshold; pKd (GRIP1_2, Q9Y3R0): below the threshold; pKd (TJP3_3, O95049): below the threshold; pKd (Inadl_10, Q8NI35): below the threshold; pKd (TJP2_1, Q9UDY2): below the threshold
TFSRRPKTRV [CD226, Q15762]	3.62	3.87	4.1	below the threshold	below the threshold	below the threshold	below the threshold	3.48	below the threshold	below the threshold	3.5	below the threshold	3.57	below the threshold	4.56	below the threshold	below the threshold	3.9	below the threshold	below the threshold	pKd (NHERF4_2, Q86UT5): below the threshold; pKd (DLG4_3, P78352): 3.84; pKd (PDLIM1, O00151): below the threshold; pKd (GORASP1, Q9BQQ3): 3.75; pKd (GRIP1_2, Q9Y3R0): 3.57; pKd (TJP3_3, O95049): below the threshold; pKd (Inadl_10, Q8NI35): below the threshold; pKd (TJP2_1, Q9UDY2): 4.25
IQISELETNV [SLC1A7, O00341]	below the threshold	below the threshold	5.61	below the threshold	below the threshold	3.85	4.11	3.84	4.03	4.34	below the threshold	below the threshold	below the threshold	below the threshold	below the threshold	3.52	3.76	3.91	below the threshold	4.88	pKd (NHERF4_2, Q86UT5): below the threshold; pKd (DLG4_3, P78352): below the threshold; pKd (PDLIM1, O00151): below the threshold; pKd (GORASP1, Q9BQQ3): below the threshold; pKd (GRIP1_2, Q9Y3R0): below the threshold; pKd (TJP3_3, O95049): below the threshold; pKd (Inadl_10, Q8NI35): below the threshold; pKd (TJP2_1, Q9UDY2): below the threshold

Source: PMC9482650, “Quantitative fragmentomics allow affinity mapping of interactomes” (Nature Communications, 2022)
